Measurements taken from patent publication US20230127087, “GLYPICAN-3-SPECIFIC MODIFIED APTAMER AND USE THEREOF” (APTAMER SCIENCES INC., published 2023).

Legend:
[1] = target: T1, Glypican-3 (GPC3) (UniProt P51654 P51654:25-554); test: filter; gemcitabine in loop; values only in figure
[2] = target: T1, Glypican-3 (GPC3); test: filter; gemcitabine at 3' end; values only in figure
[3] = target: T1, Glypican-3 (GPC3); test: Kd similar to 12-10; GPC3-Cy5; value only in figure; details: label: 5' Cy5 (cell assays)

T1 sequence (P51654 25-554, one chain of several): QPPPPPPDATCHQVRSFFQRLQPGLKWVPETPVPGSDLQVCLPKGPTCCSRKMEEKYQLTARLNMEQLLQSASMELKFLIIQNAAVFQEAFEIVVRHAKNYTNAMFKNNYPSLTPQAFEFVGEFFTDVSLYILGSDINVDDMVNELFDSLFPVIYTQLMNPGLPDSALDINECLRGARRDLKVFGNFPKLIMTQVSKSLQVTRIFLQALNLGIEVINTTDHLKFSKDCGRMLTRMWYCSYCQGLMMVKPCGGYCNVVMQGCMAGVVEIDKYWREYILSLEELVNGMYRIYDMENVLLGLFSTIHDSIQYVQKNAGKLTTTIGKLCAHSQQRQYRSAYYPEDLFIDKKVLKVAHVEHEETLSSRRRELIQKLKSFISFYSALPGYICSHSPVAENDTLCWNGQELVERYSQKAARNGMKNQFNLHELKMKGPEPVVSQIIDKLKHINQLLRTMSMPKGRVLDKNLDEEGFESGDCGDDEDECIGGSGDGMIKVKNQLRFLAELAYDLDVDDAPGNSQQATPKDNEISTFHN

B1: 12-10 G(2)L (ssDNA)
DNA: GGGAAGTGAATGCGTTGAATTATGTCCCTTCAGTCATCAC
modifications: n = BzdU; S = gemcitabine [BzdU (T) at 7,11,15,16,20,21,23,25,29,30,34,37; gemcitabine (C) at 26,27]
binding result [1]: binds

B2: 12-10 G(2)3' (ssDNA)
DNA: GGGAAGTGAATGCGTTGAATTATGTCCCTTCAGTCATCACCA
modifications: n = BzdU; S = gemcitabine [BzdU (T) at 7,11,15,16,20,21,23,25,29,30,34,37; gemcitabine (C) at 40,41]
binding result [2]: binds

B3: 12-12 (ssDNA)
DNA: GTGAATGCGTTGAATTATGTCCCTTCAGTCATCAC
modifications: n = BzdU; 3' idT
binding result [3]: binds
